Patent publication US20240352134A1 (published 2024)

How the values were obtained:
mouse CCR8 = target: T1, mouse CCR8 (mouse, UniProt P56484 1-353); experiment: FACS binding, mouse CCR8-CHOK1 cells
T1 chain: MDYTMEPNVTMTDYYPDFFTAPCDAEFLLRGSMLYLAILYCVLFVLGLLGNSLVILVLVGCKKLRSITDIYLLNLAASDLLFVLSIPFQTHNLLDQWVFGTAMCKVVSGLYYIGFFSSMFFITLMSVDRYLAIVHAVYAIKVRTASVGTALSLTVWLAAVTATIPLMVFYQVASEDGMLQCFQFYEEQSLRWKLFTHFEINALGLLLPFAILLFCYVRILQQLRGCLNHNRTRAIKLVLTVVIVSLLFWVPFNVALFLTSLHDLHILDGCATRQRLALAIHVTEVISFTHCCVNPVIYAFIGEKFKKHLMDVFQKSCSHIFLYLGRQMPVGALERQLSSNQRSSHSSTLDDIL

cynomolgus CCR8 = target: T2, cynomolgus CCR8 (cynomolgus, UniProt G7NYJ2 1-355); experiment: FACS binding, cyno CCR8-293T cells
T2 chain: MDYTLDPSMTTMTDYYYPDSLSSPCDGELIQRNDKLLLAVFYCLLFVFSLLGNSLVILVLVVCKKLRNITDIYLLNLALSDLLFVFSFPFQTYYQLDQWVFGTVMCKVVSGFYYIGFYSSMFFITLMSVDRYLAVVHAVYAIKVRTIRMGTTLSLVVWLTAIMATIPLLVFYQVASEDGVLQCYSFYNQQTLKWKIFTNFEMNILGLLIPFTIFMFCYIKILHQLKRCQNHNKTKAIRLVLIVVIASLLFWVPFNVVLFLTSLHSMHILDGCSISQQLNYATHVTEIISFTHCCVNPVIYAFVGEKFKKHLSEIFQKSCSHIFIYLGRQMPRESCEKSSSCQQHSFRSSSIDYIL

rat CCR8 = target: T3, rat CCR8 (rat, UniProt D4ADE0 1-353); experiment: FACS binding, rat CCR8-293T cells
T3 chain: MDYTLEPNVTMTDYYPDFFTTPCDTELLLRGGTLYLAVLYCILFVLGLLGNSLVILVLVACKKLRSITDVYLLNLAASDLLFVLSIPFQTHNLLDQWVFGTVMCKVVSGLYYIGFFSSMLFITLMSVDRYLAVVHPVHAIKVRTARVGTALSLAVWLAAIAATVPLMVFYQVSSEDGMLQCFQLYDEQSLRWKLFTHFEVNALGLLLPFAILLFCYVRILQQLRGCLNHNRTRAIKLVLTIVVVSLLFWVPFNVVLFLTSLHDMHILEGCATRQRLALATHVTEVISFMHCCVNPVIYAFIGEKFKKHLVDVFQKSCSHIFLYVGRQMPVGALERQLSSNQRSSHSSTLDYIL

Dog CCR8 = Dog CCR8 (dog); experiment: FACS binding, dog CCR8-293T cells

B1: 3F11hz4 (antibody, V domains shown)
VH: EVQLVESGGGLVQPGGSLKLSCAASGFSFNTYAMNWVRQASGKGLEWVGRIRSKSNYYATYYAASVKGRFTISRDDSKSTLYLQMNSLKTEDTAVYYCVRGRELGDYYAMDYWGQGTLVTVSS
VL: DIVMTQSPLSLPVTPGEPASISCRSSKSLLHSNGNTYLYWFLQKPGQSPQLLIYRMSNLASGVPDRFSGSGSGTDFTLKISRVEAEDVGVYYCMQHLEYPFTFGQGTKLEIK
An EC50 (mouse CCR8) of 0.79 nM, an EC50 (cynomolgus CCR8) of 23.1 nM and an EC50 (rat CCR8) of 3.2 nM were found for B1 in this work. It also gave an EC50 (Dog CCR8) of 2 nM.
